Results on four molecules are retold here after patent US20200055939A1 (Genentech, published 2020).

Substitutions are numbered along the chain they refer to. Where “and” joins values, the source holds several entries; their conditions need not be identical. Equal values may be shown once. Read-outs that look alike come from different tables or passages of the source. A value given as a limit tells only on which side of the number the result lay.

In experiment [1] the target is T1, MICA*008 on MEL-JUSO cells (human, UniProt Q29983 24-317).
T1 chain: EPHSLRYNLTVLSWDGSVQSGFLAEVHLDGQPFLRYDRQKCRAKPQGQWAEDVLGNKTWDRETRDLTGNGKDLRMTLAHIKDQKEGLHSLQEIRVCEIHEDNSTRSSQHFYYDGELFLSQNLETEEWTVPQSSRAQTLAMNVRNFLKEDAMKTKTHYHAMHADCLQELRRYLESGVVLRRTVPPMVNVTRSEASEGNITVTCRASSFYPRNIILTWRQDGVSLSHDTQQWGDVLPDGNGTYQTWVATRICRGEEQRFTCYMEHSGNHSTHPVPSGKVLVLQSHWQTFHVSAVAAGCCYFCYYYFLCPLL
Briefly: cell-based or functional assay.

Experiment [2] has as its target T2, MICA*004 on HCC1534 cells (human, UniProt Q29983 24-383). Briefly: cell-based or functional assay.
Experiment [3] addresses T3, MICA002.His (human MICA*002 alpha 3 domain, His tagged) (human).
T3 construct: also called huMICA*002 alpha 3-his
T3 chain: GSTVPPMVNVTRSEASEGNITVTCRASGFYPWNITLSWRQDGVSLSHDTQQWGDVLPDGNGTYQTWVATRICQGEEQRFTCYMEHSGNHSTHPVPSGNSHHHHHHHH
Nature of the experiment: SPR, antibody captured.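 Note: SPR with antibody held by surface-bound anti-Fc while His-tagged alpha three domains flow over, Kd derived by fitting a one-to-one binding model to sensograms.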 On the technique in general: Surface plasmon resonance follows binding to a sensor surface in real time, without labels.

Experiment [4] addresses T4, MICA004.His (human MICA*004 alpha 3 domain, His tagged) (human).
T4 construct: also called huMICA*004 alpha 3-his
T4 chain: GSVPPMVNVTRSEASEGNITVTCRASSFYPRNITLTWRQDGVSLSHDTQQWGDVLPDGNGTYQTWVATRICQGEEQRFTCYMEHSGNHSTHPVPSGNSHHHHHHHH
Briefly: SPR, antibody captured.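 Note: SPR with antibody held by surface-bound anti-Fc while His-tagged alpha three domains flow over, Kd derived by fitting a one-to-one binding model to sensograms.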

In experiment [5] the target is T5, MICB005.His (human MICB*005 alpha 3 domain, His tagged) (human).
T5 construct: also called huMICB*005 alpha 3-his
T5 chain: T3 chain with R12C, A15V, G28S, W32R, S37T, D48N, C72R, S90G
Briefly: SPR, antibody captured.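 Note: SPR with antibody held by surface-bound anti-Fc while His-tagged alpha three domains flow over, Kd derived by fitting a one-to-one binding model to sensograms.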

For experiment [6], the target named is T6, MICA.008.a3.T204-S297.C-terminal insert of N298.G299.S300.mIgG2a.Glyco17 (human; mouse, UniProt Q29983 204-297, engineered N-linked glycosylation site at inserted N298).
T6 construct: not shown: murine IgG2a Fc
T6 chain: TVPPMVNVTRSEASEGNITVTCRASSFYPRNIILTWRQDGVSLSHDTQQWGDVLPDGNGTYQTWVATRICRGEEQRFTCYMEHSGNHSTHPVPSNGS
Briefly: ELISA, coated variant.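 Note: ELISA with plates coated at 2 ug/ml with MICA*008 alpha 3 glycosylation variants as murine IgG2a Fc fusions, antibody binding detected by HRP anti-human IgG Fc and TMB absorbance.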 In general terms: ELISA stands for enzyme-linked immunosorbent assay.

Experiment [7] concerns the target T7, MICA.008.a3.R202-S297.R202N mIgG2a.Glyco11 (human; mouse, UniProt Q29983 203-297, engineered N-linked glycosylation site R202N).
T7 construct: not shown: murine IgG2a Fc
T7 chain: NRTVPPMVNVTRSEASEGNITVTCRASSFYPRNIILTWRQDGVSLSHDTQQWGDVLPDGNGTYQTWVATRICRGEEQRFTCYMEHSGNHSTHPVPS
Nature of the experiment: ELISA, coated variant.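 Note: ELISA with plates coated at 2 ug/ml with MICA*008 alpha 3 glycosylation variants as murine IgG2a Fc fusions, antibody binding detected by HRP anti-human IgG Fc and TMB absorbance.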

Experiment [8] deals with T8, MICA.008.a3.T204-S297.I236T.mIgG2a.Glyco13 (human; mouse, UniProt Q29983 204-297, engineered N-linked glycosylation site created by I236T).
T8 construct: not shown: murine IgG2a Fc
T8 chain: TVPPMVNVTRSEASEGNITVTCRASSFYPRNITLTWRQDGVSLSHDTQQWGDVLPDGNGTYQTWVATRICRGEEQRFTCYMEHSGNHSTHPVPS
Briefly: ELISA, coated variant.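 Note: ELISA with plates coated at 2 ug/ml with MICA*008 alpha 3 glycosylation variants as murine IgG2a Fc fusions, antibody binding detected by HRP anti-human IgG Fc and TMB absorbance.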

For experiment [9], the target named is T9, MICA.008.a3.T204-S297.G243N.mIgG2a.Glyco14 (human; mouse, UniProt Q29983 204-297, engineered N-linked glycosylation site G243N).
T9 construct: not shown: murine IgG2a Fc
T9 chain: T8 chain with T33I, G40N
Nature of the experiment: ELISA, coated variant.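 Note: ELISA with plates coated at 2 ug/ml with MICA*008 alpha 3 glycosylation variants as murine IgG2a Fc fusions, antibody binding detected by HRP anti-human IgG Fc and TMB absorbance.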

Experiment [10] concerns the target T10, MICA.008.a3.T204-S297.E215N.mIgG2a.Glyco12 (human; mouse, UniProt Q29983 204-297, engineered N-linked glycosylation site E215N).
T10 construct: not shown: murine IgG2a Fc
T10 chain: T8 chain with E12N, T33I
Nature of the experiment: ELISA, coated variant.

Experiment [11] deals with T11, MICA008.His (human MICA*008 alpha 3 domain, His tagged) (human).
T11 construct: Also used for FPOP (expressed in CHO); also called huMICA*008 alpha 3-his; MICA*008 a3
T11 chain: T3 chain with G28S, W32R, T35I, S37T, Q73R
Briefly: ELISA, coated antigen.

Experiment [12] deals with T12, MICB*005 on HCC1534 cells (human, UniProt Q29980 23-383).
T12 sequence (looked up): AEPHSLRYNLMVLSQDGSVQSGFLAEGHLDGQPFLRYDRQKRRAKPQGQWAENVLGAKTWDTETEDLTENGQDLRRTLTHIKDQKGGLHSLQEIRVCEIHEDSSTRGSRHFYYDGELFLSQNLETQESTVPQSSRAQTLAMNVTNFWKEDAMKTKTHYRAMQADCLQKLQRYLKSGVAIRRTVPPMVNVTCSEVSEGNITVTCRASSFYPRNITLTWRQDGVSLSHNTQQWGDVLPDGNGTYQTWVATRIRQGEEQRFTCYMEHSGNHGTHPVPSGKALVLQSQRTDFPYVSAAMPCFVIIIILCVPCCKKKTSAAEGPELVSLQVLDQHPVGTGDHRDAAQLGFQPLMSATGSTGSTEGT
Briefly: cell-based or functional assay.

Experiment [13] has as its target T13, MILL1-MICA chimera.murine IgG2a Fc fusion (mouse MILL1 with grafted human MICA*008 …).
T13 construct: MICA*008 residues around NGTYQT on the 'back' and in the beta2 microglobulin interface grafted onto murine MILL1; also called MILL1-MICA*008 chimera
Briefly: ELISA, coated chimera.

The target in experiment [14] is T11, MICA008.His (human MICA*008 alpha 3 …). Nature of the experiment: SPR, antibody captured.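 Note: SPR with antibody held by surface-bound anti-Fc while His-tagged alpha three domains flow over, Kd derived by fitting a one-to-one binding model to sensograms.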
The target in experiment [15] is T14, MICA.008.a3.T204-S297.H248N.mIgG2a.Glyco15 (human; mouse, UniProt Q29983 204-297, engineered N-linked glycosylation site H248N).
T14 construct: not shown: murine IgG2a Fc
T14 chain: T8 chain with T33I, H45N
Nature of the experiment: ELISA, coated variant.

Experiment [16] deals with T12, MICB*005 on HCC1534 cells. Briefly: cell-based or functional assay. This is another data set of the same source.
The target in experiment [17] is T1, MICA*008 on MEL-JUSO cells. Nature of the experiment: cell-based or functional assay.
Experiment [18] concerns the target T2, MICA*004 on HCC1534 cells. Briefly: cell-based or functional assay. This is another data set of the same source.
Experiment [19] deals with MICA*002 on cells (PANC-1; B16-MICA002) (human, UniProt Q29983 24-383). Briefly: cell-based or functional assay.
The target of experiment [20] is T12, MICB*005 on HCC1534 cells. Briefly: cell-based or functional assay. This is another data set of the same source.
Experiment [21] deals with T1, MICA*008 on MEL-JUSO cells. Briefly: cell-based or functional assay.
In experiment [22] the target is T2, MICA*004 on HCC1534 cells. Briefly: cell-based or functional assay. The source holds these as a separate data set.
The target in experiment [23] is T15, MICA.008.a3.T204-S297.E215N.G243N.H248N.R279N.C-terminal insert of N298.G299.S300.mIgG2a.Glyco4 … (human; mouse, engineered N-linked glycosylation sites E215N, G243N, H248N, R279N and inserted N298).
T15 construct: not shown: murine IgG2a Fc
Nature of the experiment: ELISA, coated variant.

B1: 7A3.1.9 (antibody, V domains shown)
VH: QVQLKESGPGLVAPSQSLSITCTVSGFALTGSGVNWVRQPPGKGLEWLGMIWGDGNTDYNSALKSRLSISKDNSKSQIFLKMNSLQTDDTARYYCARGAHYGKRWYFDVWGAGTTVTVSS
VL: DIQMTQTTSSLSASLGDRVTISCSASQGINNYLNWYQQKPDGTVKLLIYYTSSLPSGVPSRFSGSGSGTDYSLTISNLEPEDIATYYCQQYSKLPPTFGGGTKVEIK
notes: Mouse hybridoma antibody; constant regions differ by assay
Usually Kd stands for the concentration at which binding is half-saturated. Lower therefore signals a tighter complex. Turning to B1, the “% max inhibition of shedding” value is below 10% in experiment [1] and 50% in experiment [2]. Further, in experiment [2], the “EC50 of shedding inhibition” value was 0.411 µg/mL. Moreover, the dissociation constant Kd in experiment [3] is 22 nM; in experiment [4], 8.7 nM; in [5], 16 nM. In addition, the binding result in [6], in experiment [7], in [8], in experiment [9], in experiment [10] and in [11] was “binds” in each case.

B2: 1E6.1.3 (antibody, V domains shown)
VH: B1 VH with A28S, K43Q, I78V
VL: B1 VL with S9F, K39R, S53T, T85S
notes: as for B1
Regarding B2, the “% max inhibition of shedding” value turned out to be 20% in [1] and 46% in experiment [2]. Also, the “EC50 of shedding inhibition” value in [2] was 0.681 µg/mL. Moreover, the values for the Kd in experiment [3], in [4] and in experiment [5] were 24 nM, 37 nM and 18 nM, respectively. Besides, the binding result in experiment [6], in [7], in experiment [8], in experiment [9], in [10] and in experiment [11] was “binds” each time.

B3: 13A9 (antibody, V domains shown)
VH: QVQLQQSGAELVRPGTSVKVSCKASGYAFTNYLIEWVKQRPGQGLEWIGAINPGSGATNYNEKFKDKARLTADKSSNTAYLQFSSLTSDDSAVYFCARFLGNYFDNWGQGATLTVSS
VL: DIQMTQSPASLSASVGETVTITCRASGNIHSYLAWYQQKQGKSPQLLVYYAETLADGVPSRFSGRGSGTQYSLKINSLQPEDFGSYFCQQFWTTPYTFGGGTKVEIK
notes: Mouse variable domains; constant regions differ by assay
On to B3, for which the results for the “% max inhibition of shedding” value in experiment [12], in experiment [1] and in experiment [2] were 79%, 47% and 66%, respectively. Besides, the “EC50 of shedding inhibition” value in [12] was found to be 0.053 µg/mL; in [1], 0.489 µg/mL; in [2] it was 0.166 µg/mL; in [16], 0.0349 µg/mL; in [17] it was 0.794 µg/mL; in [18] it was 0.599 µg/mL. In addition, in [19], the “EC50 of shedding inhibition” value turned out to be 0.418 µg/mL. The binding result in experiment [13], in experiment [6], in experiment [7], in experiment [15], in [8] and in [10] was “binds” in each case. Also, the equilibrium dissociation constant (Kd) in [3] was found to be 0.5 nM; in [4] it was 1.55 nM; in experiment [14], 0.94 nM; in [5] it was 0.97 nM. The “Max % Inhibition of shedding” value in [16] came to 76%; in [17], 50%; in experiment [18], 56%; in experiment [19] it was 66%. Further, the “maximum inhibition of shedding” value in experiment [20] is 75%; in experiment [21] it was around 40%; in experiment [22], around 60%.

B4: 6E1.1.12 (antibody, V domains shown)
VH: QGQMQQSGAELVKPGASVKLSCKTSGFTFSDNYISWLKQKPGQSLEWIAWIYAGTGGSSYNQKFRDKAQLTVDTSSRTAYMQLSSLTTEDSAIYYCARHDYYGTSGAWFAYWGRGTLVTVSA
VL: DVLMTQTPLSLPVSLGDQASISCRSSQHIVHSNENTYLEWYLQKPGQSPKLLIYKVSNRFSGVPDRFSGSGSGTDFTLKISRVEAEDLGVYYCFQGSHVPWTFGGGTKVEIK
notes: as for B1
In the case of B4, the “EC50 of shedding inhibition” value is 0.0791 µg/mL in experiment [12]; 0.265 µg/mL and 0.157 µg/mL in experiment [2]; 0.0724 µg/mL in [16]. Further, the binding result in experiment [13], in experiment [7], in experiment [23] and in experiment [10] was “binds” throughout. The Kd in experiment [3] is 2.8 nM; in experiment [4], 8.7 nM; in experiment [14], 6.8 nM; in experiment [5] it was 10 nM. The “Max % Inhibition of shedding” value in [16] is 58%. Moreover, the “maximum inhibition of shedding” value in experiment [22] is around 50%.
